Measured values: article PMC2852398, “Metal-Free ALS Variants of Dimeric Human Cu,Zn-Superoxide Dismutase Have Enhanced Populations of Monomeric Species” (PLoS ONE, 2010)

B1: apo A4V SOD1 in the AS-SOD1 (C6A/C111S) background (enzyme)
chain: not shown
notes: human Cu,Zn superoxide dismutase (SOD1), 153-residue subunit; Apo (metal-free) form with the intra-subunit C57-C146 disulfide bond intact; source: BL21-Gold(DE3) PLysS cells, purified (anion exchange QSepharose XL and/or gel filtration Sephacryl 200HR)
B2: apo-AS-SOD1 (human Cu,Zn superoxide dismutase, C6A/C111S pseudo-wild-type background, metal-free) (enzyme)
chain: not shown
notes: human Cu,Zn superoxide dismutase (SOD1), 153-residue subunit; Apo (metal-free) form with the intra-subunit C57-C146 disulfide bond intact; also called WT; WT SOD1; source: BL21-Gold(DE3) PLysS cells, purified (anion exchange QSepharose XL and/or gel filtration Sephacryl 200HR)
B3: apo L106V SOD1 in the AS-SOD1 (C6A/C111S) background (enzyme)
chain: not shown
notes: as for B1
B4: apo S134N SOD1 in the AS-SOD1 (C6A/C111S) background (enzyme)
chain: not shown
notes: as for B1
B5: apo L38V SOD1 in the AS-SOD1 (C6A/C111S) background (enzyme)
chain: not shown
notes: as for B1

Molecular target: the molecule itself
Experiment: global analysis of urea unfolding and refolding kinetics (manual-mixing far-UV CD at 230 nm); kinetic traces at 0.25 to 8.75 M urea and 1 to 40 µM protein fit together to 2U = 2M = N2; constants in the absence of urea; step: dimer (N2) to folded monomers (2M); monomer unfolding rate fixed to that of the stable monomeric variants; apo protein; 10 mM potassium phosphate, 1 mM K2EDTA, pH 7.2, 20°C

Protein | Kd | koff | kon
B1 | 123 nM | 0.0223 s⁻¹ | 180000 M⁻¹ s⁻¹
B2 | 0.87 nM | 0.000745 s⁻¹ | 860000 M⁻¹ s⁻¹
B3 | 21 nM | 0.00151 s⁻¹ | 73000 M⁻¹ s⁻¹
B4 | 1.1 nM | 0.000222 s⁻¹ | 200000 M⁻¹ s⁻¹
B5 | 4.6 nM | 0.000557 s⁻¹ | 120000 M⁻¹ s⁻¹
